As a reminder, the stoichiometry N is the number of molecules, sites or subunits per partner or assembly.

For experiment [1], the target named is native RPE1 extracted from Chlamydomonas reinhardtii cell cultures (Chlamydomonas reinhardtii (endogenous in strain D66)). As to the kind of experiment: SEC. A general note: Size exclusion chromatography separates by hydrodynamic size, large species first.
For experiment [2], the target named is recombinant ribulose-5-phosphate-3-epimerase isoform 1 from Chlamydomonas reinhardtii (CrRPE1) (Chlamydomonas reinhardtii). As to the kind of experiment: crystal structure.
Experiment [3] shares this target. As to the kind of experiment: SEC-SAXS.
Experiment [4] has the same target. As to the kind of experiment: SEC.

In experiment [1], “native RPE1 extracted from Chlamydomonas reinhardtii cell cultures (enzyme)” showed a stoichiometry N of 6 subunits.
For the substance “recombinant ribulose-5-phosphate-3-epimerase isoform 1 from Chlamydomonas reinhardtii (CrRPE1) (enzyme)”, the stoichiometry N was 6 subunits in experiment [2] and 5 subunits in experiment [4]. The stoichiometry N (subunits per particle) in experiment [3] is 6.
